Experimental data as given in PMC5456053.
Values belong to the binder of their own block, whether it stands above or below them.

Columns and labels:
[1] = molecular target: SecYEG-SecDF•YajC (E. coli) (UniProt P0AGA2)
[2] = molecular target: SecA C34 (C-terminal 34 kD protein; SecA 610-901) (E. coli) (UniProt P10408)

% pOmpA Translocation, +YEG: in vitro translocation of pOmpA into liposomes with SecYEG-SecDF•YajC (% pOmpA Translocation) [1]: 0
Channel Activity, μA, +YEG: ion current in Xenopus oocytes injected with the fragment, liposomes, SecYEG-SecDF•YajC, pOmpA, ATP-Mg [1]: 5.8 μA
translocation of pOmpA, liposomes with SecYEG-SecDF•YajC, N-fragment reconstituted with C34 (Fig 6B) (% of the activity of intact SecA) [2]: 50
B1: SecA N668 (SecA 1-668) (domain or fragment)
chain: MLIKLLTKVFGSRNDRTLRRMRKVVNIINAMEPEMEKLSDEELKGKTAEFRARLEKGEVLENLIPEAFAVVREASKRVFGMRHFDVQLLGGMVLNERCIAEMRTGEGKTLTATLPAYLNALTGKGVHVVTVNDYLAQRDAENNRPLFEFLGLTVGINLPGMPAPAKREAYAADITYGTNNEYGFDYLRDNMAFSPEERVQRKLHYALVDEVDSILIDEARTPLIISGPAEDSSEMYKRVNKIIPHLIRQEKEDSETFQGEGHFSVDEKSRQVNLTERGLVLIEELLVKEGIMDEGESLYSPANIMLMHHVTAALRAHALFTRDVDYIVKDGEVIIVDEHTGRTMQGRRWSDGLHQAVEAKEGVQIQNENQTLASITFQNYFRLYEKLAGMTGTADTEAFEFSSIYKLDTVVVPTNRPMIRKDLPDLVYMTEAEKIQAIIEDIKERTAKGQPVLVGTISIEKSELVSNELTKAGIKHNVLNAKFHANEAAIVAQAGYPAAVTIATNMAGRGTDIVLGGSWQAEVAALENPTAEQIEKIKADWQVRHDAVLEAGGLHIIGTERHESRRIDNQLRGRSGRQGDAGSSRFYLSMEDALMRIFASDRVSGMMRKLGMKPGEAIEHPWVTKAIANAQRKVESRNFDIRKQLLEYDDVANDQRRAIYSQRNELLD

Channel Activity, μA, +YEG: ion current in Xenopus oocytes injected with the fragment, liposomes, SecYEG-SecDF•YajC, pOmpA, ATP-Mg [1]: 2.2 μA
translocation of pOmpA, liposomes with SecYEG-SecDF•YajC, N-fragment reconstituted with C34 (Fig 6B) (% of the activity of intact SecA) [2]: 50
B2: SecA N640 (SecA 1-640) (domain or fragment)
chain: MLIKLLTKVFGSRNDRTLRRMRKVVNIINAMEPEMEKLSDEELKGKTAEFRARLEKGEVLENLIPEAFAVVREASKRVFGMRHFDVQLLGGMVLNERCIAEMRTGEGKTLTATLPAYLNALTGKGVHVVTVNDYLAQRDAENNRPLFEFLGLTVGINLPGMPAPAKREAYAADITYGTNNEYGFDYLRDNMAFSPEERVQRKLHYALVDEVDSILIDEARTPLIISGPAEDSSEMYKRVNKIIPHLIRQEKEDSETFQGEGHFSVDEKSRQVNLTERGLVLIEELLVKEGIMDEGESLYSPANIMLMHHVTAALRAHALFTRDVDYIVKDGEVIIVDEHTGRTMQGRRWSDGLHQAVEAKEGVQIQNENQTLASITFQNYFRLYEKLAGMTGTADTEAFEFSSIYKLDTVVVPTNRPMIRKDLPDLVYMTEAEKIQAIIEDIKERTAKGQPVLVGTISIEKSELVSNELTKAGIKHNVLNAKFHANEAAIVAQAGYPAAVTIATNMAGRGTDIVLGGSWQAEVAALENPTAEQIEKIKADWQVRHDAVLEAGGLHIIGTERHESRRIDNQLRGRSGRQGDAGSSRFYLSMEDALMRIFASDRVSGMMRKLGMKPGEAIEHPWVTKAIANAQRKVESRNFD
